Data on two substances can be found in patent US20260109745A1.

Assay [1] has as its target MUC5AC (NPC-1 antigen, tumor variant) as expressed on human pancreatic tumor cell lines (human) (UniProt P98088). The assay is described as follows: immunofluorescence on fixed, permeabilized CFPAC-1 cells, 2 ug/ml.
Assay [2] concerns the target MUC5AC (NPC-1 antigen, tumor variant) as expressed by human colorectal tumor cell lines (human) (UniProt P98088). In words: flow cytometry on SW480 colorectal tumor cells.
Assay [3] shares this target. In words: flow cytometry on Colo-205 colorectal tumor cells. On the technique in general: Flow cytometry measures light scatter and fluorescence of single cells or particles in a stream.
Assay [4] shares this target. The assay is described as follows: flow cytometry on LS174T colorectal tumor cells.
Assay [5] addresses MUC5AC (NPC-1 antigen, tumor variant) as expressed on human pancreatic tumor cell lines (human) (UniProt P98088). In words: flow cytometry on CFPAC-1 pancreatic tumor cells.

MUC5AC (NPC-1 antigen, tumor variant) as expressed by human colorectal tumor cell lines (human), sequence (P98088 other isoform, or with tags, fused parts or gaps mutant limits assumed): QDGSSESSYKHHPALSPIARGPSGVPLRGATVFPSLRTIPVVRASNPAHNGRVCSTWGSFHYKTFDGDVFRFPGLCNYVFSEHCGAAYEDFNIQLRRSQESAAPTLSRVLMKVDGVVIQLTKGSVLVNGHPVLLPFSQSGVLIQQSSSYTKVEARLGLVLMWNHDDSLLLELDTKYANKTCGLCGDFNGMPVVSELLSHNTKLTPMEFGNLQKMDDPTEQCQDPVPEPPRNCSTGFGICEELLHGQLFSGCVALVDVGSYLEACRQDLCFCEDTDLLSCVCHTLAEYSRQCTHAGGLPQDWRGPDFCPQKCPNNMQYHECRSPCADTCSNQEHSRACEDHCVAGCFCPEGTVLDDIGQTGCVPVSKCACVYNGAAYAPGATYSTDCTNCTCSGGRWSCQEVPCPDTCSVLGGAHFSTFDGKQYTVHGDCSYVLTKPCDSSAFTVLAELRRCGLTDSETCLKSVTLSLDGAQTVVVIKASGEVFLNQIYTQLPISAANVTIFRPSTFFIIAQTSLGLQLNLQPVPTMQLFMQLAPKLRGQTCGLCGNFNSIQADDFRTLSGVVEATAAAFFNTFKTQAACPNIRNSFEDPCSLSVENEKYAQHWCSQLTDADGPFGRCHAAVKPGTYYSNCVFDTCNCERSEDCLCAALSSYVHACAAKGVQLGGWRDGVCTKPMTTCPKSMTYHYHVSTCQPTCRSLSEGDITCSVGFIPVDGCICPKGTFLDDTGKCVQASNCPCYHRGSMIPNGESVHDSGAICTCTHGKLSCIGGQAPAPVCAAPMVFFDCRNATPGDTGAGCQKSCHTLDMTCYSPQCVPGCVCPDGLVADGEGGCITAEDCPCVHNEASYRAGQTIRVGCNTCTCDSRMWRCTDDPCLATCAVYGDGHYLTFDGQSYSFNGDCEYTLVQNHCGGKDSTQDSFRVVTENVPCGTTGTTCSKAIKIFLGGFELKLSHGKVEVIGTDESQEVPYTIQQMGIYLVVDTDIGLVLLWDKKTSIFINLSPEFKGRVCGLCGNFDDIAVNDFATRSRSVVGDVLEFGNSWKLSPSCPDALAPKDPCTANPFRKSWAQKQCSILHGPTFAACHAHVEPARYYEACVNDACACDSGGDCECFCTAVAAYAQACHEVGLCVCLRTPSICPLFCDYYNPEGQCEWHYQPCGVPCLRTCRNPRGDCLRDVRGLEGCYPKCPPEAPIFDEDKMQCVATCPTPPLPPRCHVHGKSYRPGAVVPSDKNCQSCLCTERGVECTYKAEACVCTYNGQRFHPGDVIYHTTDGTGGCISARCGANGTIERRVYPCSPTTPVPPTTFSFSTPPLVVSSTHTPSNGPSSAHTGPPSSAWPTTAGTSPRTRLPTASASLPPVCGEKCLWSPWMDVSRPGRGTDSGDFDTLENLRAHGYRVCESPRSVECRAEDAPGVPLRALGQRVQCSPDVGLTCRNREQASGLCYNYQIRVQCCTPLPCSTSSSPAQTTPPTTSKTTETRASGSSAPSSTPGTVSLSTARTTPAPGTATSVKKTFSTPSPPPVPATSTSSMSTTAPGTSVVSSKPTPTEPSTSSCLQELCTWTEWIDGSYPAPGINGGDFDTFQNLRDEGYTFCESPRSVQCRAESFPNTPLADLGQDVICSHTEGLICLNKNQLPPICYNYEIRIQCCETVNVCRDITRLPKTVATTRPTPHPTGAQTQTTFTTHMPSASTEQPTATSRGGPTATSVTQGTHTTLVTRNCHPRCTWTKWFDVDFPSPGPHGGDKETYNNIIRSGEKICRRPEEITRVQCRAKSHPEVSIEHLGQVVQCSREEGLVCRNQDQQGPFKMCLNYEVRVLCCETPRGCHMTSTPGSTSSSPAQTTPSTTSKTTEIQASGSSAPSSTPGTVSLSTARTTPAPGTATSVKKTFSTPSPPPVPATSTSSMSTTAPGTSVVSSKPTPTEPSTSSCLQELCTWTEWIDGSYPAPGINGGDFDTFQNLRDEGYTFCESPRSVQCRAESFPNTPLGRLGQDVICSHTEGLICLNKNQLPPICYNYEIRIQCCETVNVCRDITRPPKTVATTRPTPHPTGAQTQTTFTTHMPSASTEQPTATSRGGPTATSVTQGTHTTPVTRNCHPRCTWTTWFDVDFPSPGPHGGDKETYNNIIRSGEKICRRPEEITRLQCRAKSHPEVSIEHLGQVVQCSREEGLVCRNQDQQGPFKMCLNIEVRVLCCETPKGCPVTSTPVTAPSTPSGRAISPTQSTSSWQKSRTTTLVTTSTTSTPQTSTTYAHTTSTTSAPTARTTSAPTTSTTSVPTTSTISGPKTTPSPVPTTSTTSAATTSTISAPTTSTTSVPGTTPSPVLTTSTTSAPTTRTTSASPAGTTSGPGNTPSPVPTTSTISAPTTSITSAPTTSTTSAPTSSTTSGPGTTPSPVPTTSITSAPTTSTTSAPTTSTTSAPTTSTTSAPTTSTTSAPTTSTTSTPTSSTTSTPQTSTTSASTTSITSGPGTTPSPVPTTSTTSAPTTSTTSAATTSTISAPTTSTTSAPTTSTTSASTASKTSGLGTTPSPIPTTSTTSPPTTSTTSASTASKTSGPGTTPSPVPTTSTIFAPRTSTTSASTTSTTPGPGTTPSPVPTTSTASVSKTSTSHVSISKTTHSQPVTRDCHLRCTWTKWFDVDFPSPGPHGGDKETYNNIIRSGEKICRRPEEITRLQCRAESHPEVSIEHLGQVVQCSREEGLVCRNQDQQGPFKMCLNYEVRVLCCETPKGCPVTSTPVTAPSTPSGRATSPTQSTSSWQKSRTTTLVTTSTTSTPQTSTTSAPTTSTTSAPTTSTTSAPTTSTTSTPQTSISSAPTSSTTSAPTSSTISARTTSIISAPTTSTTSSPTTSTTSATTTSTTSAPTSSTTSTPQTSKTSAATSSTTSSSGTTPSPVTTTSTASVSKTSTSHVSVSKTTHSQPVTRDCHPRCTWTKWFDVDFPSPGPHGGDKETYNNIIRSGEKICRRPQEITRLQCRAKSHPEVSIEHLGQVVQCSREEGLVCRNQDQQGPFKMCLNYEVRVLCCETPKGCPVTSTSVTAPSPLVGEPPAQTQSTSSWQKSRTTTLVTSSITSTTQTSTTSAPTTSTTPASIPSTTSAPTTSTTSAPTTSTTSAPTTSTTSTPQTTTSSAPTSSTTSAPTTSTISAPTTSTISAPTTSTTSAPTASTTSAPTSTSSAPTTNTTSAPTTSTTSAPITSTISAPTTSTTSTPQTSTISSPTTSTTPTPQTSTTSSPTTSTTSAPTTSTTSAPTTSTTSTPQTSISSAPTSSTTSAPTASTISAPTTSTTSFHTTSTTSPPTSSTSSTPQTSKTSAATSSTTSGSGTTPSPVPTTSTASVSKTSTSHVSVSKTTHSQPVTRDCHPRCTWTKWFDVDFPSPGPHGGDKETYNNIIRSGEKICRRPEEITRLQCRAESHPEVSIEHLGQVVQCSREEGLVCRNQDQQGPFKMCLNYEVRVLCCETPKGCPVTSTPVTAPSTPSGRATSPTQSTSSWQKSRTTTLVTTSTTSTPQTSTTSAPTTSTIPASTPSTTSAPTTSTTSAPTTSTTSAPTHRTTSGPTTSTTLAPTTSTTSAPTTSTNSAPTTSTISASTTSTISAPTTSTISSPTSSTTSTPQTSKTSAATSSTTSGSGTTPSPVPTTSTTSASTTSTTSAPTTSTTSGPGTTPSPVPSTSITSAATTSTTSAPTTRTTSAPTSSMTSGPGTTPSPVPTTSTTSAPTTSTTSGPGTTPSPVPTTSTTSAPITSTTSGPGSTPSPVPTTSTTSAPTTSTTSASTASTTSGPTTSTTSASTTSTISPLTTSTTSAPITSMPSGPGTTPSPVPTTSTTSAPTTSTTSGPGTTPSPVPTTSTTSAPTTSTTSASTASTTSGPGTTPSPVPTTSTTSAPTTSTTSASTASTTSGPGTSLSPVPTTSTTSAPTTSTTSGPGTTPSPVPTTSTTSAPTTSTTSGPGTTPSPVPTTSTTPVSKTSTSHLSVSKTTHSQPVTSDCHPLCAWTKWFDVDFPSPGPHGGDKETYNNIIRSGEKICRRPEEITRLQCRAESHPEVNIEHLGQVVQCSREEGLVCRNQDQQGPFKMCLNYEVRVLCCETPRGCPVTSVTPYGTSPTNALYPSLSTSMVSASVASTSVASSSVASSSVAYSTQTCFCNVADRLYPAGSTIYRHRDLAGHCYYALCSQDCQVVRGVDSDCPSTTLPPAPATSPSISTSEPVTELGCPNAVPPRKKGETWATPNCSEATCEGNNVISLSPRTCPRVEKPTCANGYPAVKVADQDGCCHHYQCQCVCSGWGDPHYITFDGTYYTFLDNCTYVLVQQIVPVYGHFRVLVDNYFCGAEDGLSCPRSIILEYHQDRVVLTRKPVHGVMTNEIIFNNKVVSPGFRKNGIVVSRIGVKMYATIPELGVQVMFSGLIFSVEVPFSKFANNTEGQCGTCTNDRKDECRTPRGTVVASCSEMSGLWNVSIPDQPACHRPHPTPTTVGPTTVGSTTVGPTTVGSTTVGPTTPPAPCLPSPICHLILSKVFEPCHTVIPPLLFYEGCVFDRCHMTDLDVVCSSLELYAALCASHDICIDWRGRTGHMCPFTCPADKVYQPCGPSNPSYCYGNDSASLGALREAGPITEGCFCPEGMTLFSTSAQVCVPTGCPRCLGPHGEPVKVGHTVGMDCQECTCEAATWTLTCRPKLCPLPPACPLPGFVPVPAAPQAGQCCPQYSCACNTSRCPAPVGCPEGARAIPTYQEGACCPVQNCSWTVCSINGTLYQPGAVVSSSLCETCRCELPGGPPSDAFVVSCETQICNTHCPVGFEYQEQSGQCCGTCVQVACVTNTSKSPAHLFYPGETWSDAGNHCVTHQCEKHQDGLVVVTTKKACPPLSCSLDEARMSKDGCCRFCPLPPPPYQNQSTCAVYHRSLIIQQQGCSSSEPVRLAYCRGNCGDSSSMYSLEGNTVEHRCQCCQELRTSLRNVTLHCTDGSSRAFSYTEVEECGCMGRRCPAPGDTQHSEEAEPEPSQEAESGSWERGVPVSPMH
MUC5AC (NPC-1 antigen, tumor variant) as expressed on human pancreatic tumor cell lines (human), sequence (P98088 other isoform, or with tags, fused parts or gaps mutant limits assumed): as above

Take “Polyclonal rabbit anti-MUC5AC antibody (H-160) (Santa Cruz Biotechnology Inc.)”: the % of cells stained in assay [1] stood at 100%.

As for Isotype control antibody, the % Cells Stained came out at 3.38% in assay [2], 2.33% in assay [3], 3.85% in assay [4] and 1.79% in assay [5].
